Measured values as given in the supplement of paper PMC9170038.

Test system: MS2 coat protein
Experiment: apparent KD of MS2 coat protein; designed switch direction (-1 OFF switch, 1 ON switch): -1; higher = weaker reporter binding
Outline: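 On Illumina chips, designed RNA switches with common flanks were made by stalled E. coli RNA polymerase. Titrations with SNAP-549-labelled MS2 coat protein, doubling from 0.7 or 1.5 nM to 3 µM, were done with no input, with 200 uM small-molecule ligand, or with an oligonucleotide input. Apparent KD is the median per design over clusters, from curve fits of normalised cluster fluorescence.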

[1] = input ligand: microRNA oligo, concentration not stated
[2] = Eterna round: R95, input ligand: FMN 200 uM
[3] = Eterna round: R95, input ligand: microRNA oligo, concentration not stated
[4] = Eterna round: R95, input ligand: none

Sequence	apparent KD of MS2 coat protein (input ligand: FMN 200 uM) [µM]	apparent KD of MS2 coat protein [1] [µM]	apparent KD of MS2 coat protein (input ligand: none) [µM]	apparent KD of MS2 coat protein [2] [µM]	apparent KD of MS2 coat protein [3] [µM]	apparent KD of MS2 coat protein [4] [µM]
ACAUGAGGAUCACCCAUGUUUGGCUGGUUUUCUCCGGCUGUCGAGGAUAUAGUCCGGUAUCCGCGCUAGAAGGUGAGGGUCGGC [Aenatbe mod 3] (Eterna round: R96, puzzle: Exclusion NG 3)	0.0121	0.0176	0.0216	–	–	–
ACAUGAGGGAAGGGAGGAGGGACAUGAGGAUCACCCAUGUCUCAGGAUAUAGAAGAAGAAAGAAACUAGAAGGGAGAGGAGGGU [Kawasakiqro] (Eterna round: R96, puzzle: Exclusion NG 3)	0.0297	0.0166	0.025	–	–	–
ACAUGCCUUGCAGGAUAUAGGACACAUGAGGAUCACCCAUGUGGUUUCAUGUCUAACCAAGCGUCCUAGAAGGGCGGGAACAUG [Ex NG2 #28] (Eterna round: R96, puzzle: Exclusion NG 2)	0.0449	0.0258	0.0365	–	–	–
ACAUGUAAUGCAGGAUAUCUGACACAUGAGGAUCACCCAUGUGACCAGAGGAAUUGCUAAGAGUCGGAGAAGGGUAUGUACAUG [Ex NG2 #53] (Eterna round: R96, puzzle: Exclusion NG 2)	0.0194	0.0128	0.0197	–	–	–
ACAUGUCAUCGAGGAUAUUGGACACAUGAGGAUCACCCAUGUACUCGGAGGCUCUACUAUGAGUUCGAGAAGGCGAUGUACAUG [Ex NG2 #75] (Eterna round: R96, puzzle: Exclusion NG 2)	0.355	0.0454	0.0499	–	–	–
ACAUGUCUUGUAGGAUAUAGUUGACAUGAGGAUCACCCAUGUUGAUUCAUGUCUAUCGAAAGGGACUAGAAGGACGAGAAUAUG [Ex NG2 #16] (Eterna round: R96, puzzle: Exclusion NG 2)	0.0875	0.02	0.0322	–	–	–
ACAUUACAUGAGGAUCACCCAUGUGAGGAUAUGGAGCGAGACUGUCCUGUCGCGUACACCAGAAGGCGCGGGUG [1st #51] (Eterna round: R97, puzzle: Exclusion 1)	0.115	–	0.131	–	–	–
ACCUCACAUGAGGAUCACCCAUGUCAGGAUAUCUAAUGUAGUCGCGUUCCCGACGCUAAGAGAAGGGACAUUAA [EX1 #34] (Eterna round: R97, puzzle: Exclusion 1)	0.0226	–	0.0141	–	–	–
ACCUCACAUGAGGAUCACCCAUGUCAGGAUAUCUAAUGUAGUCGCGUUCCCGACGCUAAGAGAAGGGACGUUAA [EX1 #35] (Eterna round: R97, puzzle: Exclusion 1)	0.0146	–	0.0161	–	–	–
ACCUCCGCGAAGGAUAUUAGCACAUUGACAGAUUGAGAAGGUCGCACAUGAGGAUCACCCAUGUGAGGUCAUCC [Eternabot (L1) Solution 82] (Eterna round: R97, puzzle: Exclusion 6)	0.0193	–	0.0215	–	–	–
ACCUCUACGCUUUCCAAGGGUAGACCUGGUGUUUGUCACACAUGAGGAUCACCCAUGUGCACUGUGCGAGUCGAACA [solution 38] (Eterna round: R96, puzzle: Sensor v2, turn-off variant 2)	0.0495	0.0402	0.0506	–	–	–
ACCUUACUGGUCAGGAUAUACAGUCUUUGGUGUGUGUAGAAGGGACAUGAGGAUCACCCAUGUAGGUUGUUUUA [alecazam62b] (Eterna round: R97, puzzle: Brourd's mod of Exclusion 4)	0.237	–	0.165	–	–	–
ACGAAGCUUUUUGCUCGUCACAUGAGGAUCACCCAUGUGGGCCCGGGCGCCCGGGCCGACAUCCCACUAGGACAUGU [#2] (Eterna round: R97, puzzle: Sensor, turn-off variant 1)	0.104	–	0.122	–	–	–
ACGCACACGCACGCACGCACACAUGAGGAUCACCCAUGUAAUUAGGAUAUAUUGAAGAACAGAGAAUAGAAGGAAUUACUCAUG [Default title] (Eterna round: R96, puzzle: Exclusion NG 3)	0.105	0.088	0.0707	–	–	–
ACGCAUUGCCUUUGGUAGUGCGUAACAUGAGGAUCACCCAUGUAGGAUAUGGUAGGCUUUGCUUACCAGAAGGACAUAAUAAUU [JL ENG3 1.01] (Eterna round: R96, puzzle: Exclusion NG 3)	0.0541	0.0217	0.0261	–	–	–
ACGCUACAUGAGGAUCACCCAUGUGAGGAUAUUUGAUCCAGGCAGCAAAGGAUGAUACGGAGAAGGUACAUGGU [Eternabot (L1) Solution 35] (Eterna round: R97, puzzle: Exclusion 1)	0.265	–	0.147	–	–	–
ACGGACUGAGGAUAUGCAUGCAGGAUACCUUAGUCCAAGGGACAUGAGGAUCACCCAUGUAGAAGGCGGAAAUA [Riedzaanor] (Eterna round: R97, puzzle: Exclusion 2)	0.0261	–	0.0265	–	–	–

Sequence	apparent KD of MS2 coat protein (input ligand: FMN 200 uM) [µM]	apparent KD of MS2 coat protein [1] [µM]	apparent KD of MS2 coat protein (input ligand: none) [µM]	apparent KD of MS2 coat protein [2] [µM]	apparent KD of MS2 coat protein [3] [µM]	apparent KD of MS2 coat protein [4] [µM]
ACGUACUCUGUAGGAUAUCGAUGAUGCAUGAUUCGAGAAGGACAUGAGGAUCACCCAUGUUUCAAAAGCAUACUAUGUGUAGUA [Design #2] (Eterna round: R96, puzzle: Exclusion NG 1)	0.0444	0.0136	0.0209	–	–	–
ACUCGCACUGUAAGGAUAUGCAAUUACGAAAGUGAGCAGAAGGUACAUGAGGAUCACCCAUGUGCGAAUCAGUG [Eternabot (Original) Solution 36] (Eterna round: R97, puzzle: Brourd's mod of Exclusion 4)	0.0189	–	0.02	–	–	–
ACUGGUCGAGGAUAUGCAAUCGUGCUUCGGCACGUAAGAUCACAUGAGGAUCACCCAUGUAGAAGGCGACCAGU [E2/3-A2] (Eterna round: R97, puzzle: Exclusion 2)	0.0817	–	0.0212	–	–	–
ACUGGUGCAGGAUAUACAAUCGUGCUUCGGCACGUAAGGUCACAUGAGGAUCACCCAUGUAGAAGGGCACCAGU [E2/2-D1] (Eterna round: R97, puzzle: Exclusion 2)	0.177	–	0.0262	–	–	–
ACUGGUGCAGGAUAUGCAAUCGUGCUUCGGCACGUAAGGUCACAUGAGGAUCACCCAUGUAGAAGGGCACCAGU [E2/4-D1] (Eterna round: R97, puzzle: Exclusion 2)	0.0332	–	0.0126	–	–	–
ACUUAUAGAGGAUAUACAGUUAAUUACAUGAGGAUCACCCAUGUUCUUCAAUGUAUAUAAGUAGAAGGCUAAAGGA [Mat - Exclusion 5 - Eli Mod - D6] (Eterna round: R97, puzzle: Exclusion 5)	0.198	–	0.0193	–	–	–
ACUUAUUGAGGAUAUACAGAAAAUUACAUGAGGAUCACCCAUGUUCUUCAAUGUAUAUAUGUAGAAGGCAGAAGAA [JL-ex5-4.26 Malcolm mod] (Eterna round: R97, puzzle: Exclusion 5)	0.0293	–	0.0129	–	–	–
ACUUAUUGAGGAUAUACAGAUUAUUACAUGAGGAUCACCCAUGUUCUUCAAUGUAUAUAUGUAGAAGGCAGAAGAA [JL-ex5-4.25 Malcolm mod] (Eterna round: R97, puzzle: Exclusion 5)	0.179	–	0.0567	–	–	–
ACUUGUUGUCCUUGAUAUUACAUGAGGAUCACCCAUGUUAUUGUGAUUAUGAUGUGUAAGUUUGUUGCUCGUUUUAU [JR_STOV1_Sub066] (Eterna round: R97, puzzle: Sensor, turn-off variant 1)	0.0847	–	0.084	–	–	–
AGAAAAGCCCAUGACCGCAAGCUUUUUGCUUGUCUUACCACAUGAGGAUCACCCAUGUGACAUGGGCUCCUUAUAAU [Atcein] (puzzle: Sensor v3, turn-off variant 2)	–	–	–	0.0132	0.0102	0.0111
AGAAAGCAAGGAUAUACAAGUAAACGACGGAAAGUAGAGAGACAUGAGGAUCACCCAUGUAGAAGGUGCGAGAG [JR_Exclu2_Sub034] (puzzle: Exclusion 2)	–	–	–	0.0247	0.0261	0.0262
AGAAAUCUGUAGGAUAUGUUGAACACCGUGUACACAGAAGGGCAGACAUGAGGAUCACCCAUGUGGUGGGCCAG [Eternabot (L1) Solution 91] (Eterna round: R97, puzzle: Exclusion 6)	0.576	–	0.469	–	–	–
AGAAAUGCCCAUGGCCGCAAGCUUUUCGCUUGUCUUACCACAUGAGGAUCACCCAUGUGACAUGGGCUCCUUAUAAU [Usdigeor] (puzzle: Sensor v3, turn-off variant 2)	–	–	–	0.0123	–	0.012
AGAAGUAGCAACCGAUCCUACAUGAGGAUCACCCAUGUAGCAAGACGUGCACGCGAAGCUCGUCAGACUACCAGAUG [salish99_TOv1_r3_022] (puzzle: Sensor v3, turn-off variant 1)	–	–	–	0.216	0.21	0.168
AGAAGUAGUAACCGAUCCUACAUGAGGAUCACCCAUGUAGCGAGACGUGCACGCGAAGCUCGUCAGACUACCAGAUG [salish99_TOv1_r3_025] (puzzle: Sensor v3, turn-off variant 1)	–	–	–	0.138	0.139	0.159
AGAAGUAUAGGAUAUACGUCUGCGCACAUGAGGAUCACCCAUGUCGUGUUCCGUGGCAGAGUAGAAGGGUACGGAC [EX5 B.11] (Eterna round: R97, puzzle: Exclusion 5)	0.305	–	0.219	–	–	–
